The text below walks through data of article PMC10944878, “Formation of HopQ1:14-3-3 complex in the host cytoplasm modulates nuclear import rate of Pseudomonas syringae effector in Nicotiana benthamiana cells” (Frontiers in Plant Science, 2024).

Series [1] concerns the target T1, HopQ1-6xHis, in vitro phosphorylated by AtCPK3 (Pseudomonas syringae pv. phaseolicola …, UniProt Q48BD8 1-447, in vitro phosphorylated by AtCPK3; phosphorylated residues of this sample not given).
T1 construct: HopQ1 (Hrp outer protein Q), type three effector of Pseudomonas syringae pv. phaseolicola 1448A, GenBank AAZ37975.1; also called phosphorylated HopQ1; recombinant HopQ1; source: phosphorylated in vitro by GST-AtCPK3, then ion-exchange and size-exclusion chromatography
T1 sequence: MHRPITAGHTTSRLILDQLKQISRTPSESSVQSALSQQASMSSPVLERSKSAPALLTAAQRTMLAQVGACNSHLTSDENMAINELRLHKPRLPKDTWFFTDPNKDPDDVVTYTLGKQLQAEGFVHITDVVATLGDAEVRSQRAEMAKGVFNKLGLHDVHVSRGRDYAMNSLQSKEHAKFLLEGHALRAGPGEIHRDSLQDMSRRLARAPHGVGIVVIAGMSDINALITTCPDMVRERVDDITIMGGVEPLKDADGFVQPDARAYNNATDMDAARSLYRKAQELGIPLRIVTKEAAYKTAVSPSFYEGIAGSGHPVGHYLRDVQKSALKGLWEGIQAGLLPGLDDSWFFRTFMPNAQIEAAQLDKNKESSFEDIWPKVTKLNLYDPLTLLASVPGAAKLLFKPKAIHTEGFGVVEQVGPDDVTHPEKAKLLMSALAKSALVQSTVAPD
As to the kind of experiment: SEC-MALS; phosphorylated HopQ1 mixed with Nt14-3-3a at a 1:2 mass ratio, 2 h at 4°C; Superdex 200 10/300GL, 100 mM Tris-HCl pH 8.0, 150 mM NaCl, 5 mM DTT. The following applies: both partners purified. On the technique in general: Size exclusion chromatography separates by hydrodynamic size, large species first.

Series [2] concerns the molecule itself. Described as above.

B1: Nt14-3-3a protein tagged with Strep-tag II (natural protein, UniProt Q75ZE5 1-255, looked up)
chain: MASPREENVYLAKLAEQAERYEEMVEFMEKVVGAGDDELTVEERNLLSVAYKNVIGARRASWRIISSIEQKEESRGNEDHVASIKTYRSKIESELTSICNGILKLLDSKLIGTAATGDSKVFYLKMKGDYYRYLAEFKTGAERKEAAENTLSAYKSAQDIANVELAPTHPIRLGLALNFSVFYYEILNSPDRACNLAKQAFDEAIAELDTLGEESYKDSTLIMQLLRDNLTLWTSDMQDDGTDEIKEPSKAEEQQ
notes: 14-3-3a protein, Nt14-3-3a, GenBank BAD12168.1; also called 14-3-3 dimer; not shown: Strep-tag II, C-terminal, kept
A word on the stoichiometry N: it is the number of molecules, sites or subunits per partner or assembly. Turning to B1, the “stoichiometry N” value was 2 14-3-3a per HopQ1 in series [1] and 2 in series [2].
